Biological target: the molecule itself
Test: SEC

B1: recombinant GST-Vps5p expressed in bacteria (natural protein)
chain: LEAPVWDELNHEGDKTQSLVSNSIESIGQISTNEERKDNELLETTASFADKIDLDSAPEWKDPGLSVAGNPQLEEHDNSKADDLINSLAPEQDPIADLKNSTTQFIATRESGGALFTGNANSPLVFDDTIYDANTSPNTSKSISGRRSGKPRILFDSARAQRNSKRNHSLKAKRTTASDDTIKTPFTDPLKKAEKENEFVEEPLDDRNERRENNEGKFTASVEKNILEQVDRPLYNLPQTGANISSPAEVEENSEKFGKTKIGSKVPPTEKAVAFKVEVKDPVKVGELTSIHVEYTVISESSLLELKYAQVSRRYRDFRWLYRQLQNNHWGKVIPPPPEKQSVGSFKENFIENRRFQMESMLKKICQDPVLQKDKDFLLFLTSDDFSSESKKRAFLTGSGAINDSNDLSEVRISEIQLLGAEDAAEVLKNGGIDAESHKGFMSISFSSLPKYNEADEFFIEKKQKIDELEDNLKKLSKSLEMVDTSRNTLAASTEEFSSMVETLASLNVSEPNSELLNNFADVHKSIKSSLERSSLQETLTMGVMLDDYIRSLASVKAIFNQRSKLGYFLVVIENDMNKKHSQLGKLGQNIHSEKFREMRKEFQTLERRYNLTKKQWQAVGDKIKDEFQGFSTDKIREFRNGMEISLEAAIESQKECIELWETFYQTNL
  binding result: binds

From PMC2148169 (The Journal of Cell Biology, 1998)
